{"source": "paper PMC2440032", "about": "“Odorranalectin Is a Small Peptide Lectin with Potential for Drug Delivery and Targeting” (PLoS ONE, 2008)", "binders": {"B1": {"name": "odorranalectin (peptide)", "peptide": "YASPKCFRYPNGVLACT", "notes": "odorranalectin, mature 17-residue peptide at the C-terminus of the 61-residue precursor, Odorrana grahami; follows the di-basic site K42R43 of the precursor; One intramolecular disulfide bond Cys6-Cys16; Immobilised on a CM-5 chip by amine coupling; Details of purification and synthesis are in Materials and Methods S1; also called lectin-like peptide; source: purified from O. grahami skin …"}}, "key": {"[1]": {"biological_target": "Bovine submaxillary mucin (bovine, heavily O-glycosylated (sialylated) mucin preparation; the polypeptide is not given, and the main bovine submaxillary mucin (MUC19) is assumed with limits from the CHAIN feature; the pre)", "test": "SPR; Biacore 3000; odorranalectin immobilised on sensor chip CM-5 by amine coupling, glycoproteins as analytes diluted in HBS-EP (10 mM HEPES-buffered saline, 3 mM EDTA, 0.005% surfactant P-20, pH 7.4); 1:1 binding model; KD calculated from ka and kd", "details": "both partners purified"}, "fetuin": {"biological_target": "T1, fetuin (UniProt P12763 19-359)", "T1 sequence (looked up)": "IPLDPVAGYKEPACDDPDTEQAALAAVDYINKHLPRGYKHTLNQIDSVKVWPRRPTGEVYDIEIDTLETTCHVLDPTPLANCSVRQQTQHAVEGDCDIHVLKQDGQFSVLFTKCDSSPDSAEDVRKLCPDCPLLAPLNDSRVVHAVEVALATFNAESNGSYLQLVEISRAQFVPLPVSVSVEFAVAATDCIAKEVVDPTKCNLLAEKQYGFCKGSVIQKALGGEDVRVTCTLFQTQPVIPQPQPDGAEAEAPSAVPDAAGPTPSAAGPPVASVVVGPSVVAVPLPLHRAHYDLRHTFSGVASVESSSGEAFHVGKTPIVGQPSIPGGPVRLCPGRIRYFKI", "test": "SPR; Biacore 3000; odorranalectin immobilised on sensor chip CM-5 by amine coupling, glycoproteins as analytes diluted in HBS-EP (10 mM HEPES-buffered saline, 3 mM EDTA, 0.005% surfactant P-20, pH 7.4); 1:1 binding model; KD calculated from ka and kd", "details": "both partners purified"}}}
{"binder": "B1", "values": [{"measurement": "Kd", "setting": "[1]", "value": 2900, "unit": "nM"}, {"measurement": "Kd", "setting": "fetuin", "value": 211, "unit": "nM"}]}
